Assay results: PMC12718106

Assays:
[1] = target: natural Ara h 1 protein (peanut (Arachis hypogaea)); experiment: native gel or EMSA; native-PAGE of the purified allergen, nondenaturing; oligomeric state from the estimated molecular mass (Fig. S1)
[2] = target: recombinant Ara h 1 protein with N-terminal His-tag (peanut (Arachis hypogaea)); experiment: as above

stoichiometry N [1] | stoichiometry N [2] | Substance
3 |  | natural Ara h 1 protein (natural protein)
 | 3 | recombinant Ara h 1 protein with N-terminal His-tag (natural protein)
